Tests used:
Assay in all cases: EMSA
McbR R89A/E93A/R139A = McbR R89A/E93A/R139A (Escherichia coli, UniProt P76114 1-221, R89A;E93A;R139A)
McbR E93S/R139F = McbR E93S/R139F (Escherichia coli, UniProt P76114 1-221, E93S;R139F)
McbR WT = McbR WT (Escherichia coli, UniProt P76114 1-221)

Measured: binding result

B1: PyciGECO (dsDNA)
DNA 1: AATTGTTAATATATCCAGAATGTTCCTCAAAATATATTTTCCCTCTAT
DNA 2: ATAGAGGGAAAATATATTTTGAGGAACATTCTGGATATATTAACAATT
binds: all assays above

From PMC4245980
